{"source": "the DeepSol protein solubility set"}
{"test": "soluble on expression in E. coli; label from the status in PepcDB or PDB records"}
{"sequence": "MQKTFEEYERFFTTEKDMIPATIFTAPKKKFLQADSKFYEKRRVWILVISQHLVDNNLRSEDVRRFFHLESPDDDENNVDLGPSERKTATANDFDYLTTIGKGSFGRVYQVRHKETKKIYAMKILSKEHIRKKNEVKHVMAERNVLINNFKHPFLVSLHFSFQNKEKLYFVLDHLNGGELFSHLQREKHFSESRSRFYAAEIACALGYLHEKNIIYRDLKPENLLLDDKGYLVLTDFGLCKEDMQGSKTTSTFCGTPEYLAPEIILKKPYDKTVDWWCLGSVLYEMIFGLPPFYSKDHNEMYDKIINQPLRLKHNISVPCSELITGLLQKDRSKRLGHRNDFRDIRDHPFFLPVDWDKLLNRELKAPFIPKVKNAMDTSNISKEFVEIQIDPSSLAPQQLAVTHRDHDFENFTFVDTNRVLV", "soluble on expression in E. coli": "not soluble"}
{"sequence": "MPKIPITLITGFLGSGKTSFLSEYLNQTDHQGVALIINEIGQAALDQRILSVQYCGEKMLYLNAGCVCCNKRLDLVESLKATLNNYEWHGEILRRIIIETTGLANPAPILWTILSDTFLGVHFEIQSVVACVDALNAREHLTNNEAKEQIVFADSVLLTKTDLQNDSAALTKLKERIQALNPSAEIFDKRAIDYESLFSRKNRARNFMPLEHHHHHH", "soluble on expression in E. coli": "not soluble"}
{"sequence": "SLNKIKAFYNLPMAYYRLSNFLKHYIDDNTIIICIGTDRCIGDCLGPMVGTMLKEKFFPLNVYGTISEPIHALNIDKKLYKIKKDHTNSTIIGIDACLGDTENIGEIQVRDYAIHPGKGVGKSLPDVGEVSIVGIVDSCESSELFTNRNIRLNLIFEMSKVIVQTIIHSYYLHKTFSDSIFPDSASTLK", "soluble on expression in E. coli": "soluble"}
{"sequence": "MERKLGISLYPEHSTKEKDMAYISAAARHGFSRIFTCLLSVNRPKEEIVAEFKEIINHAKDNNMEVILDVAPAVFDQLGISYSDLSFFAELGADGIRLDVGFDGLTEAKMTNNPYGLKIELNVSNDIAYLENILSHQANKSALIGCHNFYPQKFTGLPYDYFIRCSERFKKHGIRSAAFITSHVANIGPWDINDGLCTLEEHRNLPIEVQAKHLWATGLIDDVIIGNAYASEEELEKLGNLNRYMLQLKVHFVDEATEVEKRATLQELHVRRGDITEYMVRSTEVRKKYKDYDFPVRESVLQERGQVVIGNNSFGKYKGELQIILKEMPIDERKNIVGTIAEEELFLLDYVGAWTQFTCVE", "soluble on expression in E. coli": "soluble"}
{"sequence": "MNSLPVAIIGGGPVGLAAAAHLAVRDVPFVLFEGKSEVGASILEWKHVSLFSPWKYNIDRAAKSLLEKESWKEPAGDRLPTGEQLVRDYLQPLAETKALKPYIYTNAPVQSIYRKGIDKIKDHNRENTPFIIRYKQDNDQKTLRARAVIDATGTWFSPNPIGAGGVPAIGEEEAKDSIYYGIPDVKGKDRSRYEGKTILVVGSGHSAIHTLLDLAQLKEAAPSTRILWAIRRNSPNGLFGGGQEDALPARGQLGLALEALLSKQKVELISSFEMEQIDRVEGRLSVVGVQNESPISLPLVDEIVANTGARPTVDYHRDIRYQLDSKLESVPALAPLIDPNIHSCGTVRPHGEKELRQPEKNFYIAGVKSYGRAPTFLLATGYEQVRSIVASLAGSKKEAERVELQLPKTGVCKSDFLAKRSCCLEHHHHHH", "soluble on expression in E. coli": "soluble"}
{"sequence": "MNIIKANVAAPDARVAITIARFNQFINDSLLDGAVDALTRIGQVKDDNITVVWVPGAYELPLATEALAKSGKYDAVVALGTVIRGGTAHFEYVAGGASNGLASVAQDSGVPVAFGVLTTESIEQAIERAGTKAGNKGAEAALTALEMINVLKAIKA", "soluble on expression in E. coli": "not soluble"}
{"sequence": "MGSDKIHHHHHHMNDLNVLVLEDEPFQRLVAVTALKKVVPGSILEAADGKEAVAILESCGHVDIAICDLQMSGMDGLAFLRHASLSGKVHSVILSSEVDPILRQATISMIECLGLNFLGDLGKPFSLERITALLTRYNARRQDLPRQIEVAELPSVADVVRGLDNGEFEAYYQPKVALDGGGLIGAEVLARWNHPHLGVLPPSHFLYVMETYNLVDKLFWQLFSQGLATRRKLAQLGQPINLAFNVHPSQLGSRALAENISALLTEFHLPPSSVMFEITETGLISAPASSLENLVRLRIMGCGLAMDDFGAGYSSLDRLCEFPFSQIKLDRTFVQKMKTQPRSCAVISSVVALAQALGISLVVEGVESDEQRVRLIELGCSIAQGYLFARPMPEQHFLDYCSGS", "soluble on expression in E. coli": "not soluble"}
{"sequence": "MTSTFDRVATIIAETCDIPRETITPESHAIDDLGIDSLDFLDIAFAIDKAFGIKLPLEKWTQEVNDGKATTEQYFVLKNLAARIDELVAAKGALEHHHHHH", "soluble on expression in E. coli": "soluble"}
{"sequence": "MHKYRLVAKKGEGTFSEVLKAQCIKNGKYVAIKCMKNHFDSLDQVNNLREIQALRRLSPHANIIKLLEVLYDQPTGRLALVFELMDMNIYELIRGRRHYVAEERIKNYMYQLMKSMDHMHRNGIFHRDIKPENILIMDDCLKLADFGSCRGIYSKQPYTEYISTRWYRAPECLLTDGYYNYKMDMWGVGCVFFEIVSLFPLFPGTNELDQITKIHNILGTPPPDLLAKMKKRSAHMDFNFPPKEGSGVAKLIPHVNPECVDLIVKLLMYNPDERLSARQALRHPYFRDLREAEKRQKALLAPDVSNHFTAMEADKARQQQTVSSTGSDHEHPTSAGGDGGAGTGAVGTHDGSAAAAAAAAALPSISGARGHAGPEGGHDNDMG", "soluble on expression in E. coli": "not soluble"}
{"sequence": "MNNIWWQTKGQGNVHLVLLHGWGLNAEVWRCIDEELSSHFTLHLVDLPGFGRSRGFGALSLADMAEAVLQQAPDKAIWLGWSLGGLVASQIALTHPERVQALVTVASSPCFSARDEWPGIKPDVLAGFQQQLSDDFQRTVERFLALQTMGTETARQDARALKKTVLALPMPEVDVLNGGLEILKTVDLRQPLQNVSMPFLRLYGYLDGLVPRKVVPMLDKLWPHSESYIFAKAAHAPFISHPAEFCHLLVALKQRV", "soluble on expression in E. coli": "soluble"}
{"sequence": "MRVYGRKILEEALRNNVPIKKVFFQKMKNPGSYFLSLVKEVEKRGIKYSFESEERLKNLSGTKKHQGVVFDIGEYRYSSVEEILEAKTPPLIVLLDQIQDPHNLGAIVRTSVGAGANGIIIPKDKSVKVTETVVKVSAGTVFRARIAVVTNLARTIEELKEKGVWTYASDIDGTPIYEEDFTFPTAFVFGNEGEGIRRLVREKCDRVVTIPMENDIDSLNVSVSVGVVLFEAVRQRRMKGAG", "soluble on expression in E. coli": "soluble"}
{"sequence": "MCSYARATDANGESFIYCRTWQGQFFRFKLEDRVYDYVTTFAKSDACLATDPDDPTKIYCALNEYNKITCIDLTKNPEDSGFETDVCGIQGPGAYQDGHVSVARLNNPQQILSMHDPETGEKVIYICDANNNCVRMYNMETKLMSTVAGIGGKSGYAAGNPTVSRMNRPYGICITPENDIYVADAGNKVIMKLAFMLEHHHHHH", "soluble on expression in E. coli": "not soluble"}
{"sequence": "MSLFQMSYYYSGLGWDFIQHVDQTNGVLNVVSPDFFYIRKDGSLLLRSANPDVIKALHRRKLKVVPFLSNHWDQDLGRFALMNRVLLAKQISHAIEELDLDGVNIDIENLTEKDRNLFTDFIRLVRKSIPRHKEVSVAVAANPFGWTKGWHGSYDYEYLAKYADYLMVMAYDESRLAGPTASVGWVEKSIQYVLTQKISPQKLVLGLPFYGRCWMEGQSASQAIPLYLVVSKKAEGHHHHHH", "soluble on expression in E. coli": "not soluble"}
{"sequence": "MLESMTGYGSAERSEKGMKVLVELRSVNNRFAEIGVKLPRQLLSWELEVRELIRASFQRGKISAFVQLQLEEAEALPVTVNPSKVRGYKALLETVRREAEIEAPVTLDHVLRFSEIFEPDHTILEHPDEIWPIAQSALIEAIGNLKEMRRKEGEELAIDFLSRIDEIERTLKEIKEIAAGNLETIRKRLASKISAIAGCDVEYSKDRLEMEIVMAAERLDITEECIRFSSHNKFFIEELNNSSSGSGRKLNFLLQEQLREANTIASKSQNADISQKVVHIKEELEKVREQLQNIE", "soluble on expression in E. coli": "soluble"}
{"sequence": "EVPDYLCCNITLEIFRDPVISPSGVTYERAAILEHLKKVGKFDPITREKIDPANLVPNLAIKEAVAAYLEKHVWAYKMGC", "soluble on expression in E. coli": "soluble"}
{"sequence": "MMMSSEMIHVEVVYALPHEQRVLKLVVEQSATVEEIIRTSGILQMYPEIDLTVNKVGIFSRNVKLDARVRDKDRIEIYRPLLADPKEIRRKRAEQAKAAANQS", "soluble on expression in E. coli": "not soluble"}
{"sequence": "MGSDKIHHHHHHMGDIQYTVRDDLKLFVNSIMVQQSADGNARFRLPLYADGYPGIMFQQSESGFFRFPESKQLSEFFLYGQTLEPISLEVQGTYRFVVFQLYPFASKYLLGIDPKELNDACYDLMQFQYIDMEVYSKQLTAAPDPESLIACMSDGVAALIGLNKPPHNDRIQQAIKQIIETEGRMRISDLSEAVCLSERTLERNFLGEVGLSPKQFAKIIQFQSSLTKLTDANAETLTAIGLDSGFTDQSHFIRVFKQYTGQTPSQYIKNQTR", "soluble on expression in E. coli": "not soluble"}
{"sequence": "MTGCSHRFYYSHMIQTSVRSFEVGEDLASMAVDERISLLRSRMQSISKSGDFSLDYNCKTADKNIIPLSDPLSHVLPWGGLPRG", "soluble on expression in E. coli": "not soluble"}
{"sequence": "MGSDKIHHHHHHAMDNYDYETVVTLIEPDCQDSLLLITKAQALKAMNRYPEAIGVLNSLILKDSTNTKVLIDLAECYKLTGNSRRAANCYQKAMNLQPENKFFRLQFIRSLLASEDYEEARTACHGWLERDSLSATGYKYLGQAYEGLQDAASAFLSYNIAYRRDSLDAQTVARIAGIFNNNQQFKDAVDVTEVYRLSDTTNIDVNRQNAKAYCMLKEYGTAVKRYESLKELGDRSFLTLYYLGVSHYGDNWFYGAYDNLKEAYQKNPMDVNVLYYLAKASARTSWKKEGVEYMEEAFRIAVPSDSMMVRLYDGLVECYDYAGDTKKEVEALEKLYIYTKKNSILYKIACLYDWKEDEKNAIRYYRKYMATVSEDQRYALDEDGNPVEDRITLYQQAWKRIKKIKEEGFFRGDIPTKSFPVEKKDTLALRHAK", "soluble on expression in E. coli": "not soluble"}
{"sequence": "MIRSSKRSLSRDLVRFVQYVDDCVVKRYGFVVKSGSGIKLNGKKPQGFGTSSEDEDNNADMSDDSEEVPVSSIDKRKVASSKSRTGVVIEGDVVKPPVMKFVVLDKNRNVCQVYGNRHDLTSSAEDDSVDGDEETLVMSRDNGRKQSLKARNGVSVKGGGGKTTRVVKTVSFDENGNVCKVYGDTHDLTSSAEDDDSVDVGEETLVMCRDEGKRRSSKTGSRVLVKGSGGKTNRVVKTVSFDENGNVYKAYGDTPESSIISEEDDSTSGSNEGNGEEKGNVNEVEEIKYVPKENESFEEEEEKETDSENEVSSSEGSEGDKRVTKKEVQHQKGSLMFSPPLPLKMEP", "soluble on expression in E. coli": "soluble"}
{"sequence": "MQSLDIKPTVGLIACCECGVAIEPNPANMCSGCLRSRVDITEGITRQCTIYMCKFCDRYFVPPSAWMRAELESKELLSICLKKLKPMLTKVRLTDACFVWTEAHSKRIKVKITIQKEVFTNTILQQAVVVEFTVHSQLCDDCRRAEAKDFWRACVQVRQRAEFKKTLFYLEQLLLKHSAHKECTGVKPVPTGIDFYFAKQQEARKFVDFLMTVLPCKYHYAQELVSHDTKNNTYDYKHTFCVEIVPICRDNIVCLPKKQAQQYGNMSQIVLCLRVSNVITLIDPNNLQLVDVQATNFWREPFDSLCGPKQLTEFYVLDVEPVNNFERKAGHGYVSKKHELADVWLVRSDQVGMSDAQSLSARTHIGHLLSPGDLVMAFDMKNCNVNNATFDAMNIDNVPDAIIVRKVFDRTRRTAKRQWKLKRLVVDGNIVGNETASVADEFQGFMEDIEEDALMREKINIYKDAEKGPNVDGDDAEDHPDAPTLAEMLDDLKFDDEEMKEAESAEDDEAMQE", "soluble on expression in E. coli": "not soluble"}
{"sequence": "EKKRIESLINNMYDPVIGLDENLKILFVNEQAIKIIGISQEELIGHYTQELAIKNDLVRTLVQDLMVAENTPSNKAIPIKIYSNNKEGYFEKEILHISVTPTGEQVKQLIGHVIILRNIT", "soluble on expression in E. coli": "not soluble"}
